Common to all, as to type: biochemical, M. truncatula
One data set deals with Medicago CCR1 (Medicago truncatula, UniProt A0A072VDF2). Briefly: CCR enzyme activity assay with purified recombinant Medicago CCR1 expressed in E. coli. The note with it: for CCR1 activity with substrate: qualitative, FIG. 5A,C. An excerpt:
(§1) To assess the potential of Medicago CCRs to produce caffeoyl aldehyde, CCR1 and CCR2 were expressed in E. coli and assayed the purified recombinant enzymes with varying concentrations of each of the four potential substrates, 4-coumaroyl-, caffeoyl-, feruloyl- and sinapoyl-CoAs. Briefly, the coding regions of CCR1 and CCR2 were amplified from the original cDNA clones with introduction of NheI enzyme sites before the ATG start codons, a BamHI site after the CCR1 stop codon, and an XhoI site after the CCR2 stop codon. The primers EpCCR1F and EpCCR1R (see Table 3 below) were used for amplification of CCR1, and EpCCR2F and EpCCR2R were used for amplification of CCR2. The PCR products were cloned into T-vector (Promega). After confirmation by sequencing, both CCR sequences were subcloned into pET28a vector (Novagen) and the resulting constructs introduced into E. coli strain BL21 ([…]) (Novagen). The clones with correct inserts were grown at 37° C. until OD600 reached about 0.6, IPTG was added to a final concentration at 0.25 mM, and culture continued at 16° C. overnight. Induced E. coli cells were harvested by centrifugation at 5,000 g for 10 min, frozen in liquid nitrogen and stored at −80° C.
All enzyme purification steps were carried out at 4° C. […]
(§2) For CCR enzyme activity assays purified CCR protein (2.5 μg) was mixed with assay buffer (100 mM phosphate pH 6.25, 10 mM 2-mercaptoethanol, 0.2 mM NADPH and cinnamoyl CoA substrates at the indicated concentration) in a final volume of 500 μl. […] Compounds were identified by comparing their UV spectra and retention times with authentic standards of hydroxycinnamoyl aldehydes, and quantified by means of standard curves with correction for recovery of internal standards. Protein concentrations were determined using Bradford reagent (Bio-Rad). For kinetic analysis at various substrate concentrations, enzyme velocity curves were analyzed using Sigmaplot 10 software (Systat Software Inc.).

For the next data set, the target named is Medicago CCR2 (Medicago truncatula, UniProt G7JEE5). Briefly: CCR enzyme activity assay with purified recombinant Medicago CCR2 expressed in E. coli. The note with it: for CCR2 activity at higher substrate concentrations: substrate inhibition, FIG. 5C,D.
Excerpt: as §1
(§3) All enzyme purification steps were carried out at 4° C. The harvested cells were suspended in extraction buffer (100 mM Hepes-NaOH, pH 7.5, 500 mM NaCl, 10 mM imidazole, 10% glycerol, 10 mM mercaptoethanol, 1 mM EDTA, and 1 mM PMSF), sonicated three times for 20 s and centrifuged at 16,000 g for 10 min. The supernatants were mixed with Ni-NTA His-bind resin (Promega). After washing three times in extraction buffer without PMSF, the recombinant proteins were eluted with elution buffer (100 mM Hepes-NaOH, 10% glycerol, 1 mM EDTA, 10 mM mercaptoethanol, and 500 mM imidazole) and the protein stored at −80 ° C. until assay.
as §2, with “μl. The reaction was carried out at 30° C. for 5 min and then terminated with the addition of 70 μL 24% trichloroacetic acid. The reaction mixture was extracted with ethyl acetate (0.6 ml×3) and the combined organic phases dried under a stream of N2.” for “μl.”

Substrate in data set [1]: CC(C)(COP(=O)(O)OP(=O)(O)OC[C@H]1O[C@@H](n2cnc3c(N)ncnc32)[C@H](O)[C@@H]1OP(=O)(O)O)[C@@H](O)C(=O)NCCC(=O)NCCSC(=O)/C=C/c1ccc(O)c(O)c1
Described as above. Conditions: other: CCR2; compound as substrate; S0.5 given in place of Km for coumaroyl and caffeoyl CoAs (sigmoidal velocity curves).
Excerpt: as §1, §3
(§4) For CCR enzyme activity assays purified CCR protein (2.5 μg) was mixed with assay buffer (100 mM phosphate pH 6.25, 10 mM 2-mercaptoethanol, 0.2 mM NADPH and cinnamoyl CoA substrates at the indicated concentration) in a final volume of 500 μl. The reaction was carried out at 30° C. for 5 min and then terminated with the addition of 70 μL 24% trichloroacetic acid. The reaction mixture was extracted with ethyl acetate (0.6 ml×3) and the combined organic phases dried under a stream of N2. The pellet was re-suspended in 50 μL methanol and 25 μL was subjected to HPLC analysis out on a Beckman System Gold HPLC system consisting of a programmable solvent module 126, a System Gold 508 autosampler and a System Gold 168 diode array detector. A Waters Spherisorb ODS-2 5 μm reverse phase column (5 μm particle, 250×4.6 mm) was used. Compounds were identified by comparing their UV spectra and retention times with authentic standards of hydroxycinnamoyl aldehydes, and quantified by means of standard curves with correction for recovery of internal standards. Protein concentrations were determined using Bradford reagent (Bio-Rad). For kinetic analysis at various substrate concentrations, enzyme velocity curves were analyzed using Sigmaplot 10 software (Systat Software Inc.).

Substrate in data set [2]: CC(C)(COP(=O)(O)OP(=O)(O)OC[C@H]1O[C@@H](n2cnc3c(N)ncnc32)[C@H](O)[C@@H]1OP(=O)(O)O)[C@@H](O)C(=O)NCCC(=O)NCCSC(=O)/C=C/c1ccc(O)cc1
The data set is described as above. Conditions: other: CCR2; compound as substrate; S0.5 given in place of Km for coumaroyl and caffeoyl CoAs (sigmoidal velocity curves).
Excerpt: as §1, §3, §4

Substrate in data set [3]: COc1cc(/C=C/C(=O)SCCNC(=O)CCNC(=O)[C@H](O)C(C)(C)COP(=O)(O)OP(=O)(O)OC[C@H]2O[C@@H](n3cnc4c(N)ncnc43)[C@H](O)[C@@H]2OP(=O)(O)O)cc(OC)c1O
The data set is described as above. Conditions: other: CCR2; compound as substrate; S0.5 given in place of Km for coumaroyl and caffeoyl CoAs (sigmoidal velocity curves).
Excerpt: as §1, §3, §4

Substrate in data set [4]: COc1cc(/C=C/C(=O)SCCNC(=O)CCNC(=O)[C@H](O)C(C)(C)COP(=O)(O)OP(=O)(O)OC[C@H]2O[C@@H](n3cnc4c(N)ncnc43)[C@H](O)[C@@H]2OP(=O)(O)O)ccc1O
The data set is described as above. Conditions: other: CCR2; compound as substrate; S0.5 given in place of Km for coumaroyl and caffeoyl CoAs (sigmoidal velocity curves).
Excerpt: as §1, §3, §4

Substrate in data set [5]: CC(C)(COP(=O)(O)OP(=O)(O)OC[C@H]1O[C@@H](n2cnc3c(N)ncnc32)[C@H](O)[C@@H]1OP(=O)(O)O)[C@@H](O)C(=O)NCCC(=O)NCCSC(=O)/C=C/c1ccc(O)c(O)c1
Briefly: CCR enzyme activity assay with purified recombinant Medicago CCR1 expressed in E. coli. The note with it: other: CCR1; compound as substrate; mean of three replicate sets of assays.
Excerpt: as §1, §3, §4

Substrate in data set [6]: CC(C)(COP(=O)(O)OP(=O)(O)OC[C@H]1O[C@@H](n2cnc3c(N)ncnc32)[C@H](O)[C@@H]1OP(=O)(O)O)[C@@H](O)C(=O)NCCC(=O)NCCSC(=O)/C=C/c1ccc(O)cc1
The data set is described as above. The note with it: other: CCR1; compound as substrate; mean of three replicate sets of assays.
Excerpt: as §1, §3, §4

Substrate in data set [7]: COc1cc(/C=C/C(=O)SCCNC(=O)CCNC(=O)[C@H](O)C(C)(C)COP(=O)(O)OP(=O)(O)OC[C@H]2O[C@@H](n3cnc4c(N)ncnc43)[C@H](O)[C@@H]2OP(=O)(O)O)cc(OC)c1O
The description is as above. Conditions: other: CCR1; compound as substrate; mean of three replicate sets of assays.
Excerpt: as §1, §3, §4

Substrate in data set [8]: COc1cc(/C=C/C(=O)SCCNC(=O)CCNC(=O)[C@H](O)C(C)(C)COP(=O)(O)OP(=O)(O)OC[C@H]2O[C@@H](n3cnc4c(N)ncnc43)[C@H](O)[C@@H]2OP(=O)(O)O)ccc1O
Described as above. The note with it: other: CCR1; compound as substrate; mean of three replicate sets of assays.
Excerpt: as §1, §3, §4

With `CC(C)(COP(=O)(O)OP(=O)(O)OC[C@H]1O[C@@H](n2cnc3c(N)ncnc32)[C@H](O)[C@@H]1OP(=O)(O)O)[C@@H](O)C(=O)NCCC(=O)NCCSC(=O)/C=C/c1ccc(O)c(O)c1` [Caffeoyl CoA], the “CCR1 activity relative to CCR2 activity” value on Medicago CCR1 (at 50 μM substrate (FIG. 5A)) was “around 7%”. Also, at Medicago CCR1, the “CCR1 activity with substrate” value is “very low activity”.
`COc1cc(/C=C/C(=O)SCCNC(=O)CCNC(=O)[C@H](O)C(C)(C)COP(=O)(O)OP(=O)(O)OC[C@H]2O[C@@H](n3cnc4c(N)ncnc43)[C@H](O)[C@@H]2OP(=O)(O)O)cc(OC)c1O` [Sinapoyl CoA]: the “CCR2 activity relative to CCR1” value at Medicago CCR2 (at 20 μM substrate) was “almost twice as active”. Moreover, the CCR2 activity entry on Medicago CCR2 (at 50 μM substrate) is recorded as “virtually no activity”. Moreover, on Medicago CCR2, the “CCR2 activity at higher substrate concentrations” value was “strongly inhibited”.
As to `COc1cc(/C=C/C(=O)SCCNC(=O)CCNC(=O)[C@H](O)C(C)(C)COP(=O)(O)OP(=O)(O)OC[C@H]2O[C@@H](n3cnc4c(N)ncnc43)[C@H](O)[C@@H]2OP(=O)(O)O)ccc1O` [Feruloyl CoA], on Medicago CCR1, the “CCR1 activity with substrate” value is “most active”. Besides, the “CCR2 activity at higher substrate concentrations” value on Medicago CCR2 is recorded as “strongly inhibited”.

B1: Medicago CCR2 (Medicago truncatula) (protein)
chain: MPAYDNTSSVSGGDQTVCVTGAGGFIASWLVKLLLERGYTVRGTVRNPEDPKNGHLKELEGARERLTLHKVDLLDLQSIQSVVHGCHGVFHTASPVTDNPDEMLEPAVNGTKNVIIASAEAKVRRVVFTSSIGTVYMDPNTSRDVVVDESYWSDLEHCKNTKNWYCYGKTVAEQSAWDIAKENQVDLVVVNPVVVLGPLLQPTINASTIHILKYLNGAAKTYVNATQSYVHVKDVALAHLLVYETNSASGRYICCETALHRGEVVEILAKYFPEYPLPTKCSDEKNPRVKPYKFSNQKLKDLGLEFTPVKQCLYDTVRSLQEKGHLPIPPMQEDSA
By Vmax is commonly meant the top rate of the reaction or transport when substrate is in excess. Broadly, the kcat is the number of substrate molecules converted per active site and unit of time at saturation. One may read the kcat/Km as the turnover number divided by the Michaelis constant. As to B1, in [1], the K0.5 was 23.4 ± 0.80 µM, the Vmax came out at 0.35 ± 0.01 µmol/min, the catalytic constant (kcat) is 0.15 ± 0.005 s⁻¹ and the specificity constant (kcat/Km) came to 8170 ± 330 M⁻¹ s⁻¹. Besides, in [2], the K0.5 is 12.4 ± 1.0 µM, the Vmax amounted to 0.44 ± 0.01 µmol/min, the kcat was 0.29 ± 0.0067 s⁻¹ and the kcat/Km was determined as 15000 ± 500 M⁻¹ s⁻¹. Moreover, in data set [3], the K0.5 came out at 32.7 ± 3.6 µM, the maximal velocity (Vmax) stood at 0.32 ± 0.02 µmol/min, the turnover number (kcat) came to 0.2 ± 0.0183 s⁻¹ and the kcat/Km was 6170 ± 830 M⁻¹ s⁻¹. Moreover, in data set [4], the K0.5 came to 44.5 ± 4.5 µM, the maximal velocity (Vmax) was 0.48 ± 0.05 µmol/min, the kcat was found to be 0.302 ± 0.0333 s⁻¹ and the catalytic efficiency (kcat/Km) was 6670 ± 830 M⁻¹ s⁻¹.

B2: Medicago CCR1 (Medicago truncatula) (protein)
chain: MPAATAAAAAESSSVSGETICVTGAGGFIASWMVKLLLEKGYTVRGTLRNPDDPKNGHLKKLEGAKERLTLVKVDLLDLNSVKEAVNGCHGVFHTASPVTDNPEEMVEPAVNGAKNVIIAGAEAKVRRVVFTSSIGAVYMDPNRSVDVEVDESCWSDLEFCKKTKNWYCYGKAVAEAAAWDVAKEKGVDLVVVNPVLVLGPLLQPTINASTIHILKYLTGSAKTYANATQAYVHVRDVALAHILVYEKPSASGRYLCAETSLHRGELVEILAKYFPEYPIPTKCSDEKNPRVKPHIFSNKKLKDLGLEFTPVSECLYETVKSLQDQGHLSIPNKEDSLAVKS
Consider B2, for which the K0.5 in [5] turned out to be 161 ± 6.8 µM; in data set [6], 56.8 ± 4.7 µM; in data set [7], 7.2 ± 0.4 µM; in [8] it was 54.5 ± 3.2 µM. Further, the maximal velocity (Vmax) in data set [5] worked out at 0.085 ± 0.0 µmol/min; in data set [6] it was 0.25 ± 0.01 µmol/min; in data set [7], 0.15 ± 0.01 µmol/min; in [8] it was 1.64 ± 0.11 µmol/min. Further, the kcat in data set [5] came to 0.0517 ± 0.0012 s⁻¹; in [6] it was 0.15 ± 0.00167 s⁻¹; in [7], 0.0917 ± 0.00233 s⁻¹; in data set [8], 1 ± 0.0342 s⁻¹. Further, the catalytic efficiency (kcat/Km) in [5] came to 317 ± 0 M⁻¹ s⁻¹; in data set [6], 2670 ± 1700 M⁻¹ s⁻¹; in data set [7], 11300 ± 830 M⁻¹ s⁻¹; in data set [8], 19000 ± 1300 M⁻¹ s⁻¹.

The record behind these values is patent publication US20120047600A1, “CAFFEOYL COA REDUCTASE” (priority 2010, published 2012).
